Laboratory results from US20110212094A1 (AbbVie / Abbott, published 2011).

B1: DVD1227 (bispecific antibody, human IgG1, kappa)
heavy: not shown
light: DVQMIQSPSSLSASLGDIVTMTCQASQGTSINLNWFQQKPGKAPKLLIYGSSNLEDGVPSRFSGSRYGTDFTLTISSLEDEDLATYFCLQHSYLPYTFGGGTKLEIKRTVAAPDIVMTQSHKFMSTTVGDRVSITCKASQAVSSAVAWYQQKPGQSPKLLIYWASTRHTGVPDRFTGSGSVTDFTLTIHNLQAEDLALYYCQQHYSTPFTFGSGTKLEIKRTVAAPSVFIFPPSDEQLKSGTASVVCLLNNFYPREAKVQWKVDNALQSGNSQESVTEQDSKDSTYSLSSTLTLSKADYEKHKVYACEVTHQGLSSPVTKSFNRGEC
notes: constant regions from vectors V1/V2; also called DVD1227H; DVD1227L
B2: DVD1230 (bispecific antibody, human IgG1, kappa)
heavy: not shown
light: EIVLTQSPATLSLSPGERATLSCRASQSVYSYLAWYQQKPGQAPRLLIYDASNRATGIPARFSGSGSGTDFTLTISSLEPEDFAVYYCQQRSNWPPFTFGPGTKVDIKRTVAAPDVQMIQSPSSLSASLGDIVTMTCQASQGTSINLNWFQQKPGKAPKLLIYGSSNLEDGVPSRFSGSRYGTDFTLTISSLEDEDLATYFCLQHSYLPYTFGGGTKLEIKRTVAAPSVFIFPPSDEQLKSGTASVVCLLNNFYPREAKVQWKVDNALQSGNSQESVTEQDSKDSTYSLSSTLTLSKADYEKHKVYACEVTHQGLSSPVTKSFNRGEC
notes: constant regions from vectors V1/V2; also called DVD1230H; DVD1230L
B3: AB213 (antibody, human IgG1, kappa, V domains shown)
VH: QVQLKESGPGLVAPSQSLSITCTVSGFSLTDYGVNWVRQPPGKGLEWLGMIWGDGSTDYDSTLKSRLSISKDNSKSQIFLKMNSLQTDDTARYYCAREWHHGPVAYWGQGTLVTVSA
VL: DIVMTQSHKFMSTTVGDRVSITCKASQAVSSAVAWYQQKPGQSPKLLIYWASTRHTGVPDRFTGSGSVTDFTLTIHNLQAEDLALYYCQQHYSTPFTFGSGTKLEIKR
notes: Parent anti-TNF antibody; also called AB213VH
B4: DVD1248 (bispecific antibody, human IgG1, kappa)
heavy: not shown
light: DIQMTQSPSSLSASVGDRVTITCRASQGIRIDLGWYQQKPGKAPKRLIYAASTLQSGVPSRFSGSGSGTEFIFTISSLQPEDFASYYCLQHKSYPLTFGGGTKVEIKRTVAAPDVQMIQSPSSLSASLGDIVTMTCQASQGTSINLNWFQQKPGKAPKLLIYGSSNLEDGVPSRFSGSRYGTDFTLTISSLEDEDLATYFCLQHSYLPYTFGGGTKLEIKRTVAAPSVFIFPPSDEQLKSGTASVVCLLNNFYPREAKVQWKVDNALQSGNSQESVTEQDSKDSTYSLSSTLTLSKADYEKHKVYACEVTHQGLSSPVTKSFNRGEC
notes: constant regions from vectors V1/V2; also called DVD1248H; DVD1248L
B5: DVD1249 (bispecific antibody, human IgG1, kappa)
heavy: not shown
light: DVQMIQSPSSLSASLGDIVTMTCQASQGTSINLNWFQQKPGKAPKLLIYGSSNLEDGVPSRFSGSRYGTDFTLTISSLEDEDLATYFCLQHSYLPYTFGGGTKLEIKRTVAAPDIQMTQSPSSLSASVGDRVTITCRASQGIRIDLGWYQQKPGKAPKRLIYAASTLQSGVPSRFSGSGSGTEFIFTISSLQPEDFASYYCLQHKSYPLTFGGGTKVEIKRTVAAPSVFIFPPSDEQLKSGTASVVCLLNNFYPREAKVQWKVDNALQSGNSQESVTEQDSKDSTYSLSSTLTLSKADYEKHKVYACEVTHQGLSSPVTKSFNRGEC
notes: constant regions from vectors V1/V2; also called DVD1249H; DVD1249L
B6: AB214 (antibody, human IgG1, kappa, V domains shown)
VH: EVKLEESGGGLVQPGGSMKLSCVASGFIFSNHWMNWVRQSPEKGLEWVAEIRSKSINSATHYAESVKGRFTISRDDSKSAVYLQMTDLRTEDTGVYYCSRNYYGSTYDYWGQGTTLTVSS
VL: DILLTQSPAILSVSPGERVSFSCRASQFVGSSIHWYQQRTNGSPRLLIKYASESMSGIPSRFSGSGSGTDFTLSINTVESEDIADYYCQESHSWPFTFGSGTNLEVKR
notes: Parent anti-TNF antibody; also called AB214VH
B7: AB215 (antibody, human IgG1, kappa, V domains shown)
VH: QVQLVESGGGVVQPGRSLRLSCAASGFTFSSYAMHWVRQAPGNGLEWVAFMSYDGSNKYAKDSVKGRFTISRDNSKNTLYLQMNSLRAEDTAVYYCARDRGIAAGGNYYYYGMDVWGQGTTVTVSS
VL: EIVLTQSPATLSLSPGERATLSCRASQSVYSYLAWYQQKPGQAPRLLIYDASNRATGIPARFSGSGSGTDFTLTISSLEPEDFAVYYCQQRSNWPPFTFGPGTKVDIKR
notes: Parent anti-TNF antibody; also called AB215VH
B8: AB217 (antibody, human IgG1, kappa, V domains shown)
VH: QVQLVESGGGVVQPGRSLRLSCAASGFTFSSYDMHWVRQAPGKGLEWVAVIWSDGSIKYYADSVKGRFTISRDNSKNTLYLQMNSLRAEDTAVYYCAREVESAMGGFYYNGMDVWGQGTTVTVSS
VL: DIQMTQSPSSLSASVGDRVTITCRASQGIRIDLGWYQQKPGKAPKRLIYAASTLQSGVPSRFSGSGSGTEFIFTISSLQPEDFASYYCLQHKSYPLTFGGGTKVEIKR
notes: Parent anti-TNF antibody; also called AB217VH
B9: AB218 (antibody, human IgG1, kappa, V domains shown)
VH: EVQLVESGGGLIQPGGSLRLSCAASGFTVSRNYMSWVRQAPGKGLEWVSVIYSGDRTYYADSVKGRFTISRDNSKNTLYLQMNSLRAEDTAVYYCARGEGGFDYWGQGTLVTVSS
VL: EIVMTQSPATLSVSPGERATLSCRASQSVSSNLAWYQQKPGQAPRLLIHGASIRATGLPARFSGSGSGTEFTLTISSLQSEDFAVYYCQQYNYWWTFGQGTKVEIKR
notes: Parent anti-TNF antibody; also called AB218VH
B10: DVD1256 (bispecific antibody, human IgG1, kappa)
heavy: not shown
light: EIVMTQSPATLSVSPGERATLSCRASQSVSSNLAWYQQKPGQAPRLLIHGASIRATGLPARFSGSGSGTEFTLTISSLQSEDFAVYYCQQYNYWWTFGQGTKVEIKRTVAAPDVQMIQSPSSLSASLGDIVTMTCQASQGTSINLNWFQQKPGKAPKLLIYGSSNLEDGVPSRFSGSRYGTDFTLTISSLEDEDLATYFCLQHSYLPYTFGGGTKLEIKRTVAAPSVFIFPPSDEQLKSGTASVVCLLNNFYPREAKVQWKVDNALQSGNSQESVTEQDSKDSTYSLSSTLTLSKADYEKHKVYACEVTHQGLSSPVTKSFNRGEC
notes: constant regions from vectors V1/V2; also called DVD1256H; DVD1256L
B11: DVD1229 (bispecific antibody, human IgG1, kappa)
heavy: not shown
light: DVQMIQSPSSLSASLGDIVTMTCQASQGTSINLNWFQQKPGKAPKLLIYGSSNLEDGVPSRFSGSRYGTDFTLTISSLEDEDLATYFCLQHSYLPYTFGGGTKLEIKRTVAAPDILLTQSPAILSVSPGERVSFSCRASQFVGSSIHWYQQRTNGSPRLLIKYASESMSGIPSRFSGSGSGTDFTLSINTVESEDIADYYCQESHSWPFTFGSGTNLEVKRTVAAPSVFIFPPSDEQLKSGTASVVCLLNNFYPREAKVQWKVDNALQSGNSQESVTEQDSKDSTYSLSSTLTLSKADYEKHKVYACEVTHQGLSSPVTKSFNRGEC
notes: constant regions from vectors V1/V2; also called DVD1229H; DVD1229L
B12: AB022 (antibody, V domains shown)
VH: EVQLQQSGPELVTPGASVKISCKASGYTFTDHYMSWVKQSHGKSLEWIGDINPYSGETTYNQKFKGTATLTVDKSSSIAYMEIRGLTSEDSAVYYCARDDYDASPFAYWGQGTLVTVSA
VL: DVQMIQSPSSLSASLGDIVTMTCQASQGTSINLNWFQQKPGKAPKLLIYGSSNLEDGVPSRFSGSRYGTDFTLTISSLEDEDLATYFCLQHSYLPYTFGGGTKLEIKR
notes: Parent anti-SOST antibody; also called SOST; AB022VH

Molecular target: T1, Recombinant Human TNF-α/TNFSF1A (human, UniProt P01375 77-233)
T1 construct: Bought reagent for Biacore; also called huTNFα
T1 sequence (P01375 77-233 limits assumed): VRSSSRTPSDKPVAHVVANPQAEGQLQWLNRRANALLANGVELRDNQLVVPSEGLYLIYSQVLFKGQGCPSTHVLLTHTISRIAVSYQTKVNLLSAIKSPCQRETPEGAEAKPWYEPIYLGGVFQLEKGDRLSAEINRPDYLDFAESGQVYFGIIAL
Test: Biacore SPR
Description: (§1) The BIACORE assay (Biacore, Inc, Piscataway, N.J.) determines the affinity of antibodies or DVD-Ig with kinetic measurements of on-rate and off-rate constants. Binding of antibodies or DVD-Ig to a target antigen (for example, a purified recombinant target antigen) is determined by surface plasmon resonance-based measurements with a Biacore® 1000 or 3000 instrument (Biacore® AB, Uppsala, Sweden) using running HBS-EP (10 mM HEPES [pH 7.4], 150 mM NaCl, 3 mM EDTA, and 0.005% surfactant P20) at 25° C. All chemicals are obtained from Biacore® AB (Uppsala, Sweden) or otherwise from a different source as described in the text. For example, approximately 5000 RU of goat anti-mouse IgG, (Fcγ), fragment specific polyclonal antibody (Pierce Biotechnology Inc, Rockford, Ill.) diluted in 10 mM sodium acetate (pH 4.5) is directly immobilized across a CM5 research grade biosensor chip using a standard amine coupling kit according to manufacturer's instructions and procedures at 25 μg/ml. Unreacted moieties on the biosensor surface are blocked with ethanolamine. Modified carboxymethyl dextran surface in flowcell 2 and 4 is used as a reaction surface. Unmodified carboxymethyl dextran without goat anti-mouse IgG in flow cell 1 and 3 is used as the reference surface. For kinetic analysis, rate equations derived from the 1:1 Langmuir binding model are fitted simultaneously to association and dissociation phases of all eight injections (using global fit analysis) with the use of Biaevaluation 4.0.1 software. Purified antibodies or DVD-Ig are diluted in HEPES-buffered saline for capture across goat anti-mouse IgG specific reaction surfaces. Antibodies or DVD-Ig to be captured as a ligand (25 μg/ml) are injected over reaction matrices at a flow rate of 5 μl/min. The association and dissociation rate constants, kₘ (M⁻¹s⁻¹) and koff (s⁻¹) are determined under a continuous flow rate of 25 μl/min. Rate constants are derived by making kinetic binding measurements at different antigen concentrations ranging from 10-200 nM. The equilibrium dissociation constant (M) of the reaction between antibodies or DVD-Igs and the target antigen is then calculated from the kinetic rate constants by the following formula: KD=koff/kₒₙ. Binding is recorded as a function of time and kinetic rate constants are calculated.

| Binder | Kd | koff | kon |
| --- | --- | --- | --- |
| B1 | 0.381 nM | 4.64e-05 s⁻¹ | 122000 M⁻¹ s⁻¹ |
| B2 | 0.132 nM | 0.000223 s⁻¹ | 1.69e+06 M⁻¹ s⁻¹ |
| B3 | 0.0335 nM | 0.000108 s⁻¹ | 3.23e+06 M⁻¹ s⁻¹ |
| B4 | 0.021 nM | 5.94e-05 s⁻¹ | 2.83e+06 M⁻¹ s⁻¹ |
| B5 | 0.389 nM | 0.000253 s⁻¹ | 649000 M⁻¹ s⁻¹ |
| B6 | 0.107 nM | 0.000291 s⁻¹ | 2.73e+06 M⁻¹ s⁻¹ |
| B7 | 0.157 nM | 0.000272 s⁻¹ | 1.74e+06 M⁻¹ s⁻¹ |
| B8 | 0.0272 nM | 5.04e-05 s⁻¹ | 1.85e+06 M⁻¹ s⁻¹ |
| B9 | 0.0288 nM | 5.15e-05 s⁻¹ | 1.79e+06 M⁻¹ s⁻¹ |
| B10 | 0.0347 nM | 8.55e-05 s⁻¹ | 2.46e+06 M⁻¹ s⁻¹ |
| B11 | 3.6 nM | 0.000398 s⁻¹ | 110000 M⁻¹ s⁻¹ |

Molecular target: T2, Recombinant Human SOST (human, UniProt Q9BQB4 24-213)
T2 construct: R&D reagent in Biacore; also called sclerostin; Human sclerostin (Abbott PR-1261069)
T2 sequence (looked up): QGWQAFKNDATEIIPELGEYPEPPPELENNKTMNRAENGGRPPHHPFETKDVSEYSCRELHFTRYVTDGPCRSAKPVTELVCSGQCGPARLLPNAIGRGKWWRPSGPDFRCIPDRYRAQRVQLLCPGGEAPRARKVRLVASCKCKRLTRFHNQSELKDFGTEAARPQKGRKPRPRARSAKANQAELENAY
Test: Biacore SPR
Description: as §1

| Binder | Kd | koff | kon |
| --- | --- | --- | --- |
| B1 | 0.03 nM | 0.000211 s⁻¹ | 7.05e+06 M⁻¹ s⁻¹ |
| B2 | 4.74 nM | 0.00029 s⁻¹ | 61100 M⁻¹ s⁻¹ |
| B4 | 0.0546 nM | 0.00039 s⁻¹ | 7.14e+06 M⁻¹ s⁻¹ |
| B5 | 0.017 nM | 0.000159 s⁻¹ | 9.42e+06 M⁻¹ s⁻¹ |
| B12 | 0.0408 nM | 0.000396 s⁻¹ | 9.68e+06 M⁻¹ s⁻¹ |
| B10 | 1.59 nM | 0.000365 s⁻¹ | 230000 M⁻¹ s⁻¹ |
| B11 | 0.0226 nM | 0.00019 s⁻¹ | 8.43e+06 M⁻¹ s⁻¹ |

Molecular target: T1, Recombinant Human TNF-α/TNFSF1A
Test: cell-based or functional assay

| Binder | C-terminal VD TNFα Neutralization Assay EC50 nM (L929 cells) | N-terminal VD TNFα Neutralization Assay EC50 nM (L929 cells) | TNFα Neutralization Assay EC50 nM (L929 cells) |
| --- | --- | --- | --- |
| B1 | 1.23 nM | – | – |
| B2 | – | 1.05 nM | – |
| B3 | – | – | 0.189 nM |
| B4 | – | 0.006 nM | – |
| B5 | 5.42 nM | – | – |
| B6 | – | – | 0.04 nM |
| B7 | – | – | 1.21 nM |
| B8 | – | – | 0.212 nM |
| B9 | – | – | 0.0345 nM |
